# ± gives the uncertainty stated by the source.
# B1: FERM and PDZ domain-containing protein 4, residues 75 to 154; numbered along this chain, Q14CM0 (parent)
# chain: APRKVEMRRDPVLGFGFVAGSEKPVVVRSVTPGGPSEGKLIPGDQIVMINDEPVSAAPRERVIDLVRSCKESILLTVIQP
# Variants of: B1
# Test: abundance fitness (aPCA) (normalised: wild type 0, dead -1); higher = more abundant; growth selection in yeast, the domain comes from the species named
# Details: Homo sapiens
row,Variant,abundance fitness
1,S68P,-0.578 ± 0.033
2,S68M,-0.071 ± 0.028
3,S68L,-0.092 ± 0.022
4,S68F,-0.099 ± 0.037
5,S68A,-0.033 ± 0.023
6,S68Q,-0.001 ± 0.026
7,S68V,-0.17 ± 0.022
8,S68T,-0.043 ± 0.026
9,S68E,-0.007 ± 0.025
10,S68D,-0.042 ± 0.032
11,S68I,-0.214 ± 0.041
12,S68K,-0.043 ± 0.03
13,S68C,-0.082 ± 0.032
14,S68R,-0.048 ± 0.02
15,S68W,-0.21 ± 0.025
16,S68Y,-0.089 ± 0.037
17,V66Q,-0.451 ± 0.035
18,V66F,-0.056 ± 0.033
19,V66C,-0.08 ± 0.028
20,V66K,-0.692 ± 0.043
21,V66T,-0.18 ± 0.026
22,V66E,-0.427 ± 0.029
23,V66L,0.022 ± 0.022
24,V66G,-0.73 ± 0.027

row,Variant,abundance fitness
1,V66Y,-0.382 ± 0.041
2,V66A,-0.219 ± 0.024
3,V66R,-0.818 ± 0.028
4,V66M,-0.004 ± 0.029
5,V66N,-0.733 ± 0.066
6,V66P,-0.881 ± 0.048
7,V66S,-0.569 ± 0.028
8,V66H,-0.686 ± 0.056
9,V66D,-0.681 ± 0.048
10,V66I,-0.009 ± 0.035
11,V66W,-0.475 ± 0.029
12,L65Y,-0.076 ± 0.039
13,L75E,-0.514 ± 0.054
14,L75D,-0.343 ± 0.062
15,L75H,-0.553 ± 0.2
16,L75M,-0.022 ± 0.041
17,L75A,-0.332 ± 0.04
18,L75K,-0.387 ± 0.07
19,L75I,-0.118 ± 0.066
20,L75C,-0.257 ± 0.052
21,L75F,-0.101 ± 0.047
22,S72R,-0.019 ± 0.021
23,S72I,-0.177 ± 0.029
24,S72H,-0.015 ± 0.029

row,Variant,abundance fitness
1,S72Y,-0.129 ± 0.029
2,S72D,-0.014 ± 0.029
3,S72A,-0.072 ± 0.024
4,S72W,-0.234 ± 0.029
5,S72T,-0.011 ± 0.026
6,S72F,-0.167 ± 0.028
7,S72V,-0.104 ± 0.023
8,S72P,-0.284 ± 0.028
9,S72Q,-0.004 ± 0.027
10,S72K,0.009 ± 0.027
11,S72N,-0.028 ± 0.028
12,S72C,-0.111 ± 0.032
13,S72M,-0.11 ± 0.028
14,C69Q,-0.034 ± 0.027
15,C69S,-0.025 ± 0.021
16,C69I,-0.19 ± 0.03
17,C69E,-0.059 ± 0.029
18,C69R,-0.119 ± 0.022
19,C69T,-0.044 ± 0.023
20,C69D,-0.323 ± 0.034
21,C69V,-0.091 ± 0.023
22,C69A,0.004 ± 0.023
23,C69W,-0.591 ± 0.034
24,C69F,-0.159 ± 0.029

row,Variant,abundance fitness
1,C69P,-0.378 ± 0.028
2,C69L,-0.236 ± 0.022
3,C69M,-0.1 ± 0.028
4,C69N,-0.056 ± 0.027
5,C69G,-0.209 ± 0.025
6,C69K,-0.089 ± 0.026
7,C69H,-0.064 ± 0.028
8,I73C,-0.045 ± 0.039
9,I73V,-0.025 ± 0.027
10,I73P,-0.57 ± 0.061
11,I73S,-0.462 ± 0.037
12,I73F,-0.242 ± 0.057
13,I73E,-0.463 ± 0.037
14,I73L,-0.023 ± 0.029
15,I73H,-0.793 ± 0.17
16,I73R,-0.669 ± 0.036
17,I73T,-0.202 ± 0.038
18,I73W,-0.954 ± 0.057
19,I73Y,-0.755 ± 0.092
20,I73G,-0.565 ± 0.032
21,I73N,-0.369 ± 0.052
22,R67M,-0.064 ± 0.025
23,R67V,-0.079 ± 0.021
24,R67C,-0.055 ± 0.029

row,Variant,abundance fitness
1,R67F,-0.095 ± 0.036
2,R67Y,-0.06 ± 0.036
3,R67Q,0.001 ± 0.028
4,R67L,-0.105 ± 0.022
5,R67P,-0.808 ± 0.044
6,R67S,-0.013 ± 0.023
7,R67W,-0.182 ± 0.024
8,R67D,-0.018 ± 0.032
9,R67A,-0.01 ± 0.022
10,R67K,0.002 ± 0.027
11,R67G,-0.038 ± 0.019
12,R67N,0.017 ± 0.033
13,R67E,0.005 ± 0.024
14,R67I,-0.159 ± 0.04
15,R67T,-0.018 ± 0.026
16,K70F,-0.256 ± 0.034
17,K70C,-0.115 ± 0.033
18,K70R,-0.081 ± 0.024
19,K70N,-0.076 ± 0.03
20,K70W,-0.323 ± 0.034
21,K70P,-0.052 ± 0.027
22,K70S,-0.054 ± 0.024
23,K70T,-0.098 ± 0.026
24,K70D,-0.055 ± 0.038

row,Variant,abundance fitness
1,K70I,-0.311 ± 0.033
2,K70Q,-0.078 ± 0.031
3,K70A,-0.1 ± 0.027
4,K70E,-0.061 ± 0.033
5,K70V,-0.168 ± 0.026
6,K70G,-0.093 ± 0.026
7,K70H,-0.096 ± 0.032
8,K70M,-0.17 ± 0.029
9,K70Y,-0.153 ± 0.029
10,K70L,-0.306 ± 0.024
11,E71V,-0.164 ± 0.029
12,E71I,-0.261 ± 0.037
13,E71Y,-0.231 ± 0.035
14,E71P,-0.219 ± 0.033
15,E71H,-0.081 ± 0.035
16,E71S,-0.055 ± 0.026
17,E71G,-0.041 ± 0.03
18,E71A,-0.095 ± 0.029
19,E71C,-0.149 ± 0.038
20,E71W,-0.215 ± 0.035
21,E71D,0 ± 0.036
22,E71T,-0.052 ± 0.028
23,E71K,0 ± 0.034
24,E71Q,-0.038 ± 0.031

row,Variant,abundance fitness
1,E71R,-0.059 ± 0.025
2,E71M,-0.198 ± 0.034
3,E71N,-0.106 ± 0.036
4,E71L,-0.232 ± 0.026
5,L74S,0.024 ± 0.038
6,L74E,0.005 ± 0.034
7,L74R,0.037 ± 0.031
8,L74Q,0.03 ± 0.045
9,L74Y,0.131 ± 0.092
10,L74G,0.009 ± 0.026
11,L74T,-0.014 ± 0.043
12,L74V,0.012 ± 0.031
13,L74D,0.012 ± 0.05
14,L74W,-0.024 ± 0.037
15,L74H,0.005 ± 0.13
16,L74P,-0.366 ± 0.068
17,L74N,-0.035 ± 0.079
18,L74I,0.145 ± 0.096
19,L74M,0.011 ± 0.043
20,L74C,0.038 ± 0.05
21,L74F,0.016 ± 0.062
22,L74A,-0.006 ± 0.032
23,L74K,0.026 ± 0.049
